Assay results from PMC2577357 (Nucleic Acids Research, 2008).

Columns and labels:
[1] = target: the molecule itself; assay: glycerol gradient sedimentation
MthRnl = target: T1, MthRnl (Methanobacterium thermoautotrophicum ΔH, UniProt O27289 1-381); assay: EMSA
T1 sequence: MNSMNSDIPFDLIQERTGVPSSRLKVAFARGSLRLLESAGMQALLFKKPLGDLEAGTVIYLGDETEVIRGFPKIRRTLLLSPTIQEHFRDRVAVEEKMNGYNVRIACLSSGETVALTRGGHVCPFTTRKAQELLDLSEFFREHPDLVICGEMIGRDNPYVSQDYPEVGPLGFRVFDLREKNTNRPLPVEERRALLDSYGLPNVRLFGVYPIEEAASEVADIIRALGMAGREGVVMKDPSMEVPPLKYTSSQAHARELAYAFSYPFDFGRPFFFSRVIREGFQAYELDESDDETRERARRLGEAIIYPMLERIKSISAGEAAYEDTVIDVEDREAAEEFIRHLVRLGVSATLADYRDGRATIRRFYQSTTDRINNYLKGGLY

B1: Methanobacterium RNA ligase (MthRnl), full-length, His10-tagged (enzyme, Methanobacterium thermoautotrophicum ΔH, UniProt O27289 1-381, looked up)
chain: T1 sequence
For B1, the “stoichiometry N” value [1] was 2.

Work on AUUCCGAUAGUGCGUGUCGCCCUU (ssRNA, 5'-phosphate) [pRNA 24-mer] yielded a Kd (MthRnl) of ~1500 nM.

ATTCCGATAGTGCGTGTCGCCCTT (ssDNA, 5'-phosphate) [pDNA 24-mer] gave a Kd (MthRnl) of ~2000 nM.
